Measurements from patent US10370438B2, “Histamine-releasing factor (HRF), HRF-receptor and methods of modulating inflammation” (LA JOLLA INSTITUTE FOR ALLERGY AND IMMUNOLOGY, priority 2010, dated 2019).
Values belong to the molecule of their own block, whether it stands above or below them.

Legend:
C57BL/6 mice = assay: OVA-induced mast cell-dependent airway inflammation model; assay type: in vivo, mouse; conditions: intranasal pretreatment before each OVA challenge
Experimental: Mice were sensitized with OVA (10 μg in 0.1 ml saline) at days 0, 7, 14, 21, 28, and 35. Sensitized mice were challenged with OVA (20 μg in 20 μl saline) at days 40, 43 and 46. Some mice were pretreated with GST, GST-N19 (400 μg in PBS), or N19 peptide (40 μg in 2% DMSO-containing PBS) 15 minutes before OVA challenge. Twenty-four hours after the last challenge, lung function in response to methacholine was tested using FlexiVent system (SCIREQ Scientific Respiratory Equipment). Mice were sacrificed and plasma, BAL fluids, and lung tissues were collected. Cells in BAL fluids were counted, and specific cell numbers were calculated after May-Giemsa staining of Cytospin preparations. Immunofluorescence microscopy was performed on membrane-permeabilized and non-permeabilized lung tissues. For staining of lung tissues by staining of H&E and periodic acid-Schiff (PAS), lung tissues were fixed with formalin and embedded in paraffin. For measurement of cytokine levels in lung tissues, lung homogenates were prepared (Oyoshi et al., Immunol. 120:303 (2007)) and cytokines quantified by ELISA. HRF in lung homogenates and plasma was SDS-PAGE and immunoblotting with anti-HRF Ab (Santa Cruz Biotechnology).
Asthma is a type 2 helper T cell-driven, chronic inflammatory lung disease (Wills-Karp, Annu Rev Immunol 17, 255 (1999)). To study HRF involvement in allergic airway inflammation, an airway inflammation model was utilized, in which mast cells are implicated in amplifying antigen-dependent chronic inflammation (Williams, et al., J Exp Med 192, 455 (Aug. 7, 2000)). C57BL/6 mice were first sensitized with OVA (10 μg) at days 0, 7, 14, 21, 28 and 35. At days 40, 43 and 46, mice were intranasally challenged with OVA (20 μg) or PBS. Some mice were intranasally pretreated with GST or GST-N19 (400 μg) before every OVA challenge. Twenty-four hours after the last challenge, mice were sacrificed and BAL fluids and lung tissues were collected. Lung tissues were homogenized.

HRF/IgE binding = assay: Competition ELISA of IgE binding to GST-mHRF-coated wells; set-up: species or system mouse; conditions: competitor incubated 2 hours
Experimental: To identify an inhibitor of HRF/Ig interactions to dissect the extracellular function (═HRF function as a cytokine) separate from the intracellular functions in vivo settings, the major Ig-interacting HRF sequence was studied as a specific inhibitor of HRF/Ig interactions. IgE molecules were incubated in GST-mHRF-coated wells in the presence or absence (−) of the indicated concentrations of competitors, GST-N19, GST-mHRF or mHRF-His6 for 2 hours. After incubation, bound-IgE was detected by incubation with biotinylated anti-mouse IgE mAb, followed by streptavidin-HRP. […] By contrast, none of the shorter mHRF peptides tested (residues 1-6, 1-12, 5-19, and 9-19) inhibited HRF/IgE binding. GST-N19 inhibited HRF/IgG binding as well.

IgE-sensitized mice = assay: Passive cutaneous anaphylaxis induced by mHRF in IgE-sensitized ears; assay type: in vivo, mouse; conditions: 8 hours after injection in IgE-sensitized ears
Experimental: Mouse ears were first sensitized with 0.5 μg anti-TNP (C38-2 in the right ear and C48-2 in the left ear) IgE. After 24 hours, Evans' blue dye was intravenously (i.v.) injected, and TNP26-BSA (Ag: 0.1 μg) or mHRF-His6 (10 μg) were immediately injected into the ears. The acute (30 minute) reactions were analyzed by measurement of Evans' blue dye leakage. The ear thickness was measured using a micrometer (Mitutoyo) at 0.5, 1, 2, 4, 6, 8, 12, and 24 hours after mHRF-His6challenge. As a negative control, saline was injected into the ears in place of antigen or HRF challenge. IgG-mediated response was performed by sensitization with 2 μg IgG1 (in place of anti-TNP IgE) and challenge with anti-mouse IgG1 Ab (0.6 μg: Southern Biotechnology, in place of TNP26-BSA). Engraftmanet of Kit^W-sh/W-sh mice with BMMCs was performed 6 weeks before study (Nakano, T., et al. J Exp Med 162:1025-1043 (1985)). In some studies, mice were sensitized and stimulated as described above but without Evans blue.
Here, mice were sensitized with the IgE. […] After 30 minutes, mice were sacrificed, and the amount of Evans blue dye leaked from the ears measured. […]
mHRF-His6 (H) was injected in IgE-sensitized ears and LPR was analyzed by measurement of ear thickness at 8 hours after injection. […]
IGELa2 IgE was intradermally injected into ears. […] Eight hours after injection, the ear thickness was measured (FIG. 7).

peritoneal mast cells = assay: β-hexosaminidase release (degranulation); assay type: cell-based, mouse; conditions: cells sensitized with HRF-reactive IgE, 40 minutes
Experimental: Mast cells were sensitized with 0.5 μg/ml IgE overnight. The mast cells were stimulated with TNP26-BSA or mHRF-His6 for 40 minutes in Tyrode's buffer. The amount of β-hexosaminidase (β-hex) in both supernatants and cell pellets was measured. The percentage of β-hex release was calculated as follows: % release=β-hex in supernatants/β-hex in supernatants+β-hex in cell pellets)
These hypersensitivity reactions appear to be dependent on mast cells, as the reactions were abolished in mast cell-deficient Kit^W-sh/W-sh mice and restored in Kit^W-sh/W-sh mice engrafted with WT BMMCs (FIG. 6A). […] Therefore, HRF and HRF-reactive IgE can induce anaphylactic responses in a mast cell- and FcεRI-dependent manner. Consistent with this, peritoneal mast cells sensitized with the HRF-reactive, but not the HRF-nonreactive, IgE were activated upon stimulation with HRF (FIG. 6D). After 40 minutes, both supernatants and cell pellets were collected and β-hexosaminidase release was analyzed (FIG. 6D).

Unimmunized mice = assay: Intranasal HRF in naïve mice, BAL differential cell counting; assay type: in vivo, mouse; conditions: for Lung inflammation: naïve C57BL/6 (WT) mice, 40 μg intranasally three times
Experimental: In light of the presence of HRF-reactive IgG in naïve mice and recent studies reporting the role of mast cells in the initiation of adaptive immune responses (Galli, et al., Nat Immunol 6, 135 (February, 2005)), the effect of HRF on naïve mice was assessed. Unimmunized C57BL/6 (WT), μMT, and FcRγ^−/− mice (n=5 per cohort) were treated intranasally with 40 μg mHRF-His6 three times every third day. PBS served as a negative control. BAL procedures were conducted 24 hours after the last HRF administration. Differential cell counting was performed on cytospin preparations stained with May-Giemsa. […] FcRγ is shared by multiple Fc receptors including FcεRI.

IgE = assay: ELISA with monomeric and dimeric HRF-His6 as capturing agent; assay type: binding, mouse
Experimental: Monomeric and dimeric HRF-His6 proteins purified by HPLC were coated onto plastic wells. After blocking, 206 (HRF-nonreactive) and IGELa2 (HRFreactive) IgEs were incubated. Bound IgEs were detected by incubation with biotin-conjugated anti-mouse IgE antibody, followed by incubation with horseradish peroxidase-conjugated streptavidin. The absorbance at 450 nm was measured after development of the color. […] The dimerizing ability of HRF with multiple Ig-binding sites strongly indicates the potential of HRF to crosslink Ig-bound Fc receptors.

Molecule: N19 peptide: synthetic non-fusion N19 peptide, N-terminal 19 residue peptide of HRF (MIIYRDLISHDELFSDIYK; UniProt P63028 1-19, looked up, fragment)
Airway inflammation (C57BL/6 mice): abrogated

Inhibition of IgE binding to immobilized GST-mHRF (HRF/IgE binding): none
Molecule: residues 1-6: shorter mHRF peptide, residues 1-6 (MIIYRD; UniProt P63028 1-6, looked up, fragment)

Inhibition of IgE binding to immobilized GST-mHRF (HRF/IgE binding): none
Molecule: residues 1-12: shorter mHRF peptide, residues 1-12 (MIIYRDLISHDE; UniProt P63028 1-12, looked up, fragment)

Inhibition of IgE binding to immobilized GST-mHRF (HRF/IgE binding): none
Molecule: residues 5-19: shorter mHRF peptide, residues 5-19 (RDLISHDELFSDIYK; UniProt P63028 5-19, looked up, fragment)

Inhibition of IgE binding to immobilized GST-mHRF (HRF/IgE binding): none
Molecule: residues 9-19: shorter mHRF peptide, residues 9-19 (SHDELFSDIYK; UniProt P63028 9-19, looked up, fragment)

Binding to IgE (IgE; dimeric form as capturing agent): can bind
Binding to IgE (IgE; monomeric form as capturing agent): can bind
B1: mHRF-His6: C-terminally hexahistidine-tagged recombinant mouse histamine releasing factor (protein)
chain: MIIYRDLISHDELFSDIYKIREIADGLCLEVEGKMVSRTEGAIDDSLIGGNASAEGPEGEGTESTVVTGVDIVMNHHLQETSFTKEAYKKYIKDYMKSLKGKLEEQKPERVKPFMTGAAEQIKHILANFNNYQFFIGENMNPDGMVALLDYREDGVTPFMIFFKDGLEMEKCHHHHHH
Late-phase reaction (LPR), ear swelling (IgE-sensitized mice): as high as that induced by antigen
Mast cell activation (β-hexosaminidase release) (peritoneal mast cells): activated
HRF effects (lung inflammation) (Unimmunized mice; B cell-deficient (μMT) or FcRγ−/− mice): not observed
Lung inflammation (Unimmunized mice): induced weak lung inflammation
Lung inflammation (Unimmunized mice; listed as HRF): weak lung inflammation is induced
HRF-induced lung inflammation (Unimmunized mice; naïve FcεRIα−/− mice): abrogated or reduced
Neutrophils and eosinophils in BAL fluids (Unimmunized mice; naïve WT mice): increased
